{"source": "the PETadex activity labels (doi:10.1002/cssc.202101062)", "proteins": {"B1": {"name": "unnamed (protein)", "chain": "MANPYERGPDPTVQSIEAVRGPFSVSETNVSRLVVTGFGGGTIYYPRDTSQGTFGAVAIAPGFTASEGSMAWYGPRIASQGFVVFTIDTLTRLDQPDSRGRQLLAALDYLTQRSSVRSRIDSSRLAVMGHSMGGGGSLEASESRPSLKASIPLTPWNLKKNWRNNRVPTLIVGAENDSIASVRTHAEPFYESIPSTTNKAYLELNNATHFAPNISNTTIAKYSISWLKRFVDNDTRYEQFLCPPPRPDRDIEEYRCTCPY"}, "B2": {"name": "unnamed (protein)", "chain": "MDNPYERGPDPTTQSVEAARGPYAVSQITVGGQFGSYSGGTIYYPTSTADGKFGAVAIAPGFLSFQSSVAWLGPRLASQGFVVMTIDTGTIFDQPAQRGDQLLDALDFLTQRSSVKDRIDPNRLAVAGWSMGGGGSLEAAADRPSLKAAIPMAGWNLNTNWSRLTTPVLVVGVQNDLIAPVGSHSEPFYNSIRSEKAYLELAGGSHFTVTSANTPQAKLMISWLKRFVDNDTRYEQFICPGPSRGFSVSEYRSTCPF"}, "B3": {"name": "unnamed (protein)", "chain": "MANPYERGPAPTTSSIEASRGPFAIASVTVSRSSVSGFGGGTIYYPRDTSEGTFGAVAIAPGFTADEGSMAWYGPRIASQGFVVFTIDTITRLDQPDSRGRQLLAALDYLTQRSSVRSRIDSSRLAVMGHSMGGGGSLEASVSRPSLKAAIPLTPWNLKKNWRDVRVPTLIVGAESDSIASVRTHAEPFYESIPSTTNKAYLELNNATHFAPNISNTTIAKYSISWLKRFVDNDTRYEQFLCPPPRPDRDIEEYRSTCPH"}, "B4": {"name": "unnamed (protein)", "chain": "B2 chain with D2E, L76I, M131W, G182A, S183M, F257Y"}, "B5": {"name": "unnamed (protein)", "chain": "B2 chain with A49T, L76I, G182A, S183M"}}, "key": {"[1]": {"substrate": "PET", "test": "Proxy for plastic degradation [Weight/mass loss]", "conditions": "pH 8"}, "[2]": {"substrate": "gfPET", "test": "Proxy for plastic degradation [Released monomer concentration (HPLC/LC-MS) (TPA+MHET+BHET)]"}}, "note": "Positions count from the first letter of the chain named."}
{"protein": "B1", "values": [{"measurement": "Proxy for plastic degradation", "setting": "[1]; 45 °C", "result": 2, "unit": "%"}, {"measurement": "Proxy for plastic degradation", "setting": "[1]; 50 °C", "result": 2.5, "unit": "%"}, {"measurement": "Proxy for plastic degradation", "setting": "[1]; 55 °C", "result": 1, "unit": "%"}, {"measurement": "Proxy for plastic degradation", "setting": "[1]; 60 °C", "result": 0.5, "unit": "%"}, {"measurement": "Proxy for plastic degradation", "setting": "[2]; 40 °C", "result": 0, "unit": "mmol/h"}, {"measurement": "Proxy for plastic degradation", "setting": "[2]; 50 °C", "result": 0.2, "unit": "mmol/h"}, {"measurement": "Proxy for plastic degradation", "setting": "[2]; 55 °C", "result": 0.22, "unit": "mmol/h"}, {"measurement": "Proxy for plastic degradation", "setting": "[2]; 60 °C", "result": 0.19, "unit": "mmol/h"}, {"measurement": "Proxy for plastic degradation", "setting": "[2]; 65 °C", "result": 0.1, "unit": "mmol/h"}, {"measurement": "Proxy for plastic degradation", "setting": "[2]; 70 °C", "result": 0.08, "unit": "mmol/h"}, {"measurement": "Proxy for plastic degradation", "setting": "[2]; 75 °C", "result": 0.06, "unit": "mmol/h"}, {"measurement": "Proxy for plastic degradation", "setting": "[2]; 80 °C", "result": 0.05, "unit": "mmol/h"}, {"measurement": "Proxy for plastic degradation", "setting": "[2]; 85 °C", "result": 0.05, "unit": "mmol/h"}]}
{"protein": "B2", "values": [{"measurement": "Proxy for plastic degradation", "setting": "[1]; 45 °C", "result": 1, "unit": "%"}, {"measurement": "Proxy for plastic degradation", "setting": "[1]; 50 °C", "result": 1.5, "unit": "%"}, {"measurement": "Proxy for plastic degradation", "setting": "[1]; 55 °C", "result": 1, "unit": "%"}, {"measurement": "Proxy for plastic degradation", "setting": "[1]; 60 °C", "result": 1, "unit": "%"}, {"measurement": "Proxy for plastic degradation", "setting": "[2]; 40 °C", "result": 0, "unit": "mmol/h"}, {"measurement": "Proxy for plastic degradation", "setting": "[2]; 50 °C", "result": 0.2, "unit": "mmol/h"}, {"measurement": "Proxy for plastic degradation", "setting": "[2]; 55 °C", "result": 0.21, "unit": "mmol/h"}, {"measurement": "Proxy for plastic degradation", "setting": "[2]; 60 °C", "result": 0.1, "unit": "mmol/h"}, {"measurement": "Proxy for plastic degradation", "setting": "[2]; 65 °C", "result": 0, "unit": "mmol/h"}, {"measurement": "Proxy for plastic degradation", "setting": "[2]; 70 °C", "result": 0, "unit": "mmol/h"}, {"measurement": "Proxy for plastic degradation", "setting": "[2]; 75 °C", "result": 0, "unit": "mmol/h"}, {"measurement": "Proxy for plastic degradation", "setting": "[2]; 80 °C", "result": 0, "unit": "mmol/h"}, {"measurement": "Proxy for plastic degradation", "setting": "[2]; 85 °C", "result": 0, "unit": "mmol/h"}]}
{"protein": "B3", "values": [{"measurement": "Proxy for plastic degradation", "setting": "[1]; 45 °C", "result": 1, "unit": "%"}, {"measurement": "Proxy for plastic degradation", "setting": "[1]; 50 °C", "result": 2.5, "unit": "%"}, {"measurement": "Proxy for plastic degradation", "setting": "[1]; 55 °C", "result": 1, "unit": "%"}, {"measurement": "Proxy for plastic degradation", "setting": "[1]; 60 °C", "result": 0.5, "unit": "%"}, {"measurement": "Proxy for plastic degradation", "setting": "[2]; 40 °C", "result": 0, "unit": "mmol/h"}, {"measurement": "Proxy for plastic degradation", "setting": "[2]; 50 °C", "result": 0.38, "unit": "mmol/h"}, {"measurement": "Proxy for plastic degradation", "setting": "[2]; 55 °C", "result": 0.2, "unit": "mmol/h"}, {"measurement": "Proxy for plastic degradation", "setting": "[2]; 60 °C", "result": 0.1, "unit": "mmol/h"}, {"measurement": "Proxy for plastic degradation", "setting": "[2]; 65 °C", "result": 0.05, "unit": "mmol/h"}, {"measurement": "Proxy for plastic degradation", "setting": "[2]; 70 °C", "result": 0.05, "unit": "mmol/h"}, {"measurement": "Proxy for plastic degradation", "setting": "[2]; 75 °C", "result": 0.05, "unit": "mmol/h"}, {"measurement": "Proxy for plastic degradation", "setting": "[2]; 80 °C", "result": 0.05, "unit": "mmol/h"}, {"measurement": "Proxy for plastic degradation", "setting": "[2]; 85 °C", "result": 0.05, "unit": "mmol/h"}]}
{"protein": "B4", "values": [{"measurement": "Proxy for plastic degradation", "setting": "[1]; 45 °C", "result": 0.5, "unit": "%"}, {"measurement": "Proxy for plastic degradation", "setting": "[1]; 50 °C", "result": 1, "unit": "%"}, {"measurement": "Proxy for plastic degradation", "setting": "[1]; 55 °C", "result": 0.5, "unit": "%"}, {"measurement": "Proxy for plastic degradation", "setting": "[1]; 60 °C", "result": 0.5, "unit": "%"}, {"measurement": "Proxy for plastic degradation", "setting": "[2]; 40 °C", "result": 0, "unit": "mmol/h"}, {"measurement": "Proxy for plastic degradation", "setting": "[2]; 50 °C", "result": 0.1, "unit": "mmol/h"}, {"measurement": "Proxy for plastic degradation", "setting": "[2]; 55 °C", "result": 0.13, "unit": "mmol/h"}, {"measurement": "Proxy for plastic degradation", "setting": "[2]; 60 °C", "result": 0.05, "unit": "mmol/h"}, {"measurement": "Proxy for plastic degradation", "setting": "[2]; 65 °C", "result": 0, "unit": "mmol/h"}, {"measurement": "Proxy for plastic degradation", "setting": "[2]; 70 °C", "result": 0, "unit": "mmol/h"}, {"measurement": "Proxy for plastic degradation", "setting": "[2]; 75 °C", "result": 0, "unit": "mmol/h"}, {"measurement": "Proxy for plastic degradation", "setting": "[2]; 80 °C", "result": 0, "unit": "mmol/h"}, {"measurement": "Proxy for plastic degradation", "setting": "[2]; 85 °C", "result": 0, "unit": "mmol/h"}]}
{"protein": "B5", "values": [{"measurement": "Proxy for plastic degradation", "setting": "[1]; 45 °C", "result": 2, "unit": "%"}, {"measurement": "Proxy for plastic degradation", "setting": "[1]; 50 °C", "result": 3, "unit": "%"}, {"measurement": "Proxy for plastic degradation", "setting": "[1]; 55 °C", "result": 5, "unit": "%"}, {"measurement": "Proxy for plastic degradation", "setting": "[1]; 60 °C", "result": 8, "unit": "%"}, {"measurement": "Proxy for plastic degradation", "setting": "[2]; 40 °C", "result": 0, "unit": "mmol/h"}, {"measurement": "Proxy for plastic degradation", "setting": "[2]; 50 °C", "result": 0.1, "unit": "mmol/h"}, {"measurement": "Proxy for plastic degradation", "setting": "[2]; 55 °C", "result": 0.18, "unit": "mmol/h"}, {"measurement": "Proxy for plastic degradation", "setting": "[2]; 60 °C", "result": 0.1, "unit": "mmol/h"}, {"measurement": "Proxy for plastic degradation", "setting": "[2]; 65 °C", "result": 0, "unit": "mmol/h"}, {"measurement": "Proxy for plastic degradation", "setting": "[2]; 70 °C", "result": 0, "unit": "mmol/h"}, {"measurement": "Proxy for plastic degradation", "setting": "[2]; 75 °C", "result": 0, "unit": "mmol/h"}, {"measurement": "Proxy for plastic degradation", "setting": "[2]; 80 °C", "result": 0, "unit": "mmol/h"}, {"measurement": "Proxy for plastic degradation", "setting": "[2]; 85 °C", "result": 0, "unit": "mmol/h"}]}
